Biological target: Paracoccidioides americana (Pb03) Cbp1 (Paracoccidioides americana (Pb03))
Experiment: crystal structure

Paracoccidioides americana (Pb03) Cbp1 (natural protein)
stoichiometry N: 2
